Laboratory results as given in article PMC6282176.

Molecular target: C-terminally truncated fragment of DdSkp1 (residues 1–122) (Dictyostelium discoideum) (UniProt P52285)
Assay: AUC

“C-terminally truncated fragment of DdSkp1 (residues 1–122) (from UniProt P52285 1-122) (domain or fragment)” gave a stoichiometry N of 2.
